Experimental data published in article PMC13388985 (Nature Communications, 2026).
Substitutions are numbered along the chain they refer to. Blank lines part the entries; values can stand above or below the binder they belong to. No end group written: not given here.

What was measured:
[1] = molecular target: T1, GST-tagged wild-type Af1521 macrodomain (UniProt O28751 1-192); assay: pull-down
T1 sequence: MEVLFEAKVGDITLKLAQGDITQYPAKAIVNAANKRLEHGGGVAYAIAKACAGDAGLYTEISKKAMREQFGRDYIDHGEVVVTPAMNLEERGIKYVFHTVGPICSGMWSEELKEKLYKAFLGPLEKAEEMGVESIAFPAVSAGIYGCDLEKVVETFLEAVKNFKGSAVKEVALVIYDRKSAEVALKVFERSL

[2] = molecular target: T2, GST-tagged Af1521-K35E/Y145R macrodomain (UniProt O28751 1-192, K35E | Y145R); assay: pull-down
T2 sequence: T1 sequence with K35E, Y145R

binding result [1]: binds | binding result [2]: binds
B1: Synthetic peptide GWTARKSAEAGTAGK-amide with ADPr on Arg-5 (peptide)
peptide: GWTAR(ADP‑ribose)KSAEAGTAGK-NH2

binding result [1]: binds | binding result [2]: binds
B2: Synthetic peptide GWTARKSAAAGTAGK-amide with ADPr on Ser-7 (peptide)
peptide: GWTARKS(ADP‑ribose)AAAGTAGK-NH2
